# According to the RNAGym collection of RNA variant scans (doi:10.7554/elife.90254):
# B1: OR4K15 (parent)
# chain: GUUAACGGUCAUAGGCCAUGGAAACUAGGAGCACCAUUUCGCUGCCAGUGAAGAAAUGAACAAAGAAAAUCUGGGCCAGGCAGGCAUCAAAAGAAAUAGUCUUGCGCUCAACCAGAAAGUCUGUAAUCAUUUUAAGGGUA
# Variants of: B1
# Assay: self-cleavage, relative activity (ratio to wild type); higher = more cleavage; in vitro, sequencing; the parent is a self-cleaving ribozyme
row,Variant,self-cleavage
1,GUUAACGGUCAUAGGCCAUGGAGACUAGGAGCACCAUUUCGCUGCUAGUGAAGAAAUGAACAAAGAAAAUCUGGGCCAGGCAGGCAUCAAAAGAAAUAGUCUUGCGCUCAACCAGAAAGUCUGUAAUCAUUUUAAGGGUA [A23G C46U],1.59
2,GUUAACGGUCAUAGGCCAUGGAGACUAGGAGUACCAUUUCGCUGCCAGUGAAGAAAUGAACAAAGAAAAUCUGGGCCAGGCAGGCAUCAAAAGAAAUAGUCUUGCGCUCAACCAGAAAGUCUGUAAUCAUUUUAAGGGUA [A23G C32U],0.82
3,GUUAACGGUCAUAGGCCAUGGAGACUAGGAGCACCAUUUCGCUGCCAGUGAAGAAAUGAACAAAGAAAAUCUGGGCCAGGCAGGCAUCAAAAGAAAUAGUCUUGCGCUCAACCAGAAAGUCUGUAAUCAUUUUGAGGGUA [A23G A134G],0.76
4,GUUAACGGUCAUAGGCCAUGGAGACUAGGAGCACCAUUUCGCUGCCAGUGAAGAAAUGAACAAAGAAAAUCUGGGCCAGGCAGGCAUCAAAAGAAAUAGUCUUGCGCUCAACCAGAAAGUCUGUAAUCAUUUUUAGGGUA [A23G A134U],0.77
5,GUUAACGGUCAUAGGCCAUGGAGACUAGGAGCACCAUUUCGCUGCCAGUGAAGAAAUGAACAAAGAAAAUCUGAGCCAGGCAGGCAUCAAAAGAAAUAGUCUUGCGCUCAACCAGAAAGUCUGUAAUCAUUUUAAGGGUA [A23G G74A],0.14
6,GUUAACGGUCAUAGGCCAUGGAGACUAGGAGCACCAUUUCGCUGCCAGUGAAGAAAUGAACAAAGAAAAUCUGGGCCAGGCAGGCAUCAAAAGAAAUAGUCUUGCGCUCAACCAGAAAGUCUGUAAUCCUUUUAAGGGUA [A23G A129C],0.82
7,GUUAACGGUCAUAGGCCAUGGAGACUAGGAGCACCAUUUCGCUGCCAGUGAAGAAAUGAACAAAGAAAAUCUGGGCCAGGCAGGCAUCAAAAGAAAUAGUCUUGCGCUCAACCAGAAAGUCUGUAAUCGUUUUAAGGGUA [A23G A129G],0.35
8,GUUAACGGUCAUAGGCCAUGGAGACUAGGAGCACCAUUUCGCUGCCAGUGAAGAAAUGAACAAAGAAAAUCUGGGCCAGGCAGGCAUCAAAAGAAAUAGUCUUGCGCUCUACCAGAAAGUCUGUAAUCAUUUUAAGGGUA [A23G A110U],1.25
9,GUUAACGGUCAUAGGCCAUGGAGACUAGGAGCACCAUUUCGCUGCCAGUGAAGAAAUGAACAAAGAAAAUCUGGGCCAGGCAGGCAUCAAAAGAAAUAGUCUUGCGCUCAACCAAAAAGUCUGUAAUCAUUUUAAGGGUA [A23G G115A],0.05
10,GUUAACGGUCAUAGGCCAUGGAGACUAGGAGCACCAUUUCGCUGCCAGUGAAGAAAUGAACAAAGAAAAUCUGGGCCAGGCAGGCAUCAAAAGAAAUAGUCUUGCGCUCAACCAGAAAGUCUGUAAUCAUUUUAUGGGUA [A23G A135U],1.78
11,GUUAACGGUCAUAGGCCAUGGAGACUAGGAGCACCAUUUCGCUGCCAGUGAAGAAAUGAACAAAGAAAAUCUGGGCCAGGCAGGCAUCAAAAGAAAUAGUCUUGCGCUCAACCAGAAAGUCUGUAAUCAUUUUAGGGGUA [A23G A135G],1.13
12,GUUAACGGUCAUAGGCCAUGGAGACUAGGAGCACCAUUUCGCUGCCAGUGAAGAAAUGAACAAAGAAAAUCUGGGCCAGGCAGGCAUCAAAAGAAAUAGUCUUGCGCUCAACCAGAAAGUCUGUGAUCAUUUUAAGGGUA [A23G A125G],0.4
13,GUUAACGGUCAUAGGCCAUGGAGACUAGGAGCACCAUUUCGCUGCCAGUGAAGAAAUGAACAAAGAAAAUCUGGGCCAGUCAGGCAUCAAAAGAAAUAGUCUUGCGCUCAACCAGAAAGUCUGUAAUCAUUUUAAGGGUA [A23G G80U],0.23
14,GUUAACGGUCAUAGGCCAUGGAGACUAGGAGCACCAUUUCGCUGCCAGUGAAGAAAUGAACAAAGAAAAUCUGGGCCAGGCAGGCAUCAAAAGAAAUAGUCUUGCGCUCAACCAGAAAGUCUGUAGUCAUUUUAAGGGUA [A23G A126G],0.76
15,GUUAACGGUCAUAGGCCAUGGAGACUAGGAGCACCAUUUCGCUGCCAGUGAAGAAAUGAACAAAGAAAAUCUGGGCCAGGCAGGCAUCAAAAGAAAUAGUCUUGCGCUCAUCCAGAAAGUCUGUAAUCAUUUUAAGGGUA [A23G A111U],0.23
16,GUUAACGGUCAUAGGCCAUGGAGACUAGGAGCACCAUUUCGCUGCCAGUGAAGAAAUGAACAAAGAAAAUCUGGGCCAGGCAGGCAUCAAAAGAAAUAGUCUUGCGCUCAGCCAGAAAGUCUGUAAUCAUUUUAAGGGUA [A23G A111G],0.05
17,GUUAACGGUCAUAGGCCAUGGAGACUAGGAGCACCAUUUCGCUGCCAGUGAAGAAAUGAACAAAGAAAAUCUGGGCCAGGCAGGCAUCAAAAGAAAUAGUCUUGCGCUCACCCAGAAAGUCUGUAAUCAUUUUAAGGGUA [A23G A111C],0
18,GUUAACGGUCAUAGGCCAUGGAGACUAGGAGCACCAUUUCGCUGCCAGUGAAGAAAUGAACAAAAAAAAUCUGGGCCAGGCAGGCAUCAAAAGAAAUAGUCUUGCGCUCAACCAGAAAGUCUGUAAUCAUUUUAAGGGUA [A23G G65A],0.71
19,GUUAACGGUCAUAGGCCAUGGAGACUAGGAGCACCAUUUCGCUGCCAGUGAAGAAAUGAACAAAGAAAAUCUGGGCCAGGCAGGCAUCAAAAGAAAUAGUCUUGCGCUCAACCAGAAAGUCUGUAAUCAUUUUAAAGGUA [A23G G136A],1.39
20,GUUAACGGUCAUAGGCCAUGGAGACUAGGAGCACCAUUUCCCUGCCAGUGAAGAAAUGAACAAAGAAAAUCUGGGCCAGGCAGGCAUCAAAAGAAAUAGUCUUGCGCUCAACCAGAAAGUCUGUAAUCAUUUUAAGGGUA [A23G G41C],1.01
21,GUUAACGGUCAUAGGCCAUGGAGACUAGGAGCACCAUUCCGCUGCCAGUGAAGAAAUGAACAAAGAAAAUCUGGGCCAGGCAGGCAUCAAAAGAAAUAGUCUUGCGCUCAACCAGAAAGUCUGUAAUCAUUUUAAGGGUA [A23G U39C],1.54

row,Variant,self-cleavage
1,GUUAACGGUCAUAGGCCAUGGAGACUAGGAGCACCAUUUCGCUGCCAGUAAAGAAAUGAACAAAGAAAAUCUGGGCCAGGCAGGCAUCAAAAGAAAUAGUCUUGCGCUCAACCAGAAAGUCUGUAAUCAUUUUAAGGGUA [A23G G50A],1.9
2,GUUAACGGUCAUAGGCCAUGGAGACUAGGAGCACCAUUUCGCUGCCAGUUAAGAAAUGAACAAAGAAAAUCUGGGCCAGGCAGGCAUCAAAAGAAAUAGUCUUGCGCUCAACCAGAAAGUCUGUAAUCAUUUUAAGGGUA [A23G G50U],0.79
3,GUUAACGGUCAUAGGCCAUGGAGACUAGGAGCACCACUUCGCUGCCAGUGAAGAAAUGAACAAAGAAAAUCUGGGCCAGGCAGGCAUCAAAAGAAAUAGUCUUGCGCUCAACCAGAAAGUCUGUAAUCAUUUUAAGGGUA [A23G U37C],1.03
4,GUUAACGGUCAUAGGCCAUGGAGACUAGGAGCACCAUUUCGCUGCCAGUGAAGAAAUGAAGAAAGAAAAUCUGGGCCAGGCAGGCAUCAAAAGAAAUAGUCUUGCGCUCAACCAGAAAGUCUGUAAUCAUUUUAAGGGUA [A23G C61G],1.12
5,GUUAACGGUCAUAGGCCAUGGAGACUAGGAGCACCAUUUCGCUGCCAGUGAAGAAAUGAAAAAAGAAAAUCUGGGCCAGGCAGGCAUCAAAAGAAAUAGUCUUGCGCUCAACCAGAAAGUCUGUAAUCAUUUUAAGGGUA [A23G C61A],1.45
6,GUUAACGGUCAUAGGCCAUGGAGACUAGGAGCACCAUUUCGCUGCCAGUGAAGAAAUGAAUAAAGAAAAUCUGGGCCAGGCAGGCAUCAAAAGAAAUAGUCUUGCGCUCAACCAGAAAGUCUGUAAUCAUUUUAAGGGUA [A23G C61U],1.24
7,GUUAACGGUCAUAGGCCAUGGAGACUAGGAGCACCAUUUCGCUGCCAGUGAAAAAAUGAACAAAGAAAAUCUGGGCCAGGCAGGCAUCAAAAGAAAUAGUCUUGCGCUCAACCAGAAAGUCUGUAAUCAUUUUAAGGGUA [A23G G53A],1.7
8,GUUAACGGUCAUAGGCCAUGGAGACUAGGAGCACCAUUUCGCUGCCAGUGAAGAAAUGAACAAAGAAAAUCUGGGCCAGGCAGGCAUCAAAAGAAAUAGUUUUGCGCUCAACCAGAAAGUCUGUAAUCAUUUUAAGGGUA [A23G C101U],0.35
9,GUUAACGGUCAUAGGCCAUGGAGACUAGGAGCACCAUUUCGCUGCCAGUGAAGAAAUGAACAAAGAAAAUCUGGGCCAGGCAGGCAUCAAAAGAAAUAGUCUUGCGCUCAACCAGAAUGUCUGUAAUCAUUUUAAGGGUA [A23G A118U],0.78
10,GUUAACGGUCAUAGGCCAUGGAGACUAGGAGCACCAUUUCGCUGCCAGUGAAGAAAUGAACAAAGAAAAUCUGGGCCAGGCAGGCAUCAAAAGAAAUAGUCUUGCGCUCAACCAGAAGGUCUGUAAUCAUUUUAAGGGUA [A23G A118G],0.75
11,GUUAACGGUCAUAGGCCAUGGAGACUAGGAGCACCAUUUCGCUGCCAGUGAAGAAAUGAACAAAGAAAAUCUGGGCCAGGCAGUCAUCAAAAGAAAUAGUCUUGCGCUCAACCAGAAAGUCUGUAAUCAUUUUAAGGGUA [A23G G84U],0.21
12,GUUAACGGUCAUAGGCCAUGGAGACUAGGAGCACCAUUUCGCUGCCAGUGAAGAAAUGAACAAAGAAAAUCUGGGCCAGGCAGGCAUCAAAAGAAAUAGUCUUGCGCUCAACCGGAAAGUCUGUAAUCAUUUUAAGGGUA [A23G A114G],0.54
13,GUUAACGGUCAUAGGCCAUGGAGACUAGGAGCACCAUUUCGCUGCCAGUGAAGAAAUGAACAAAGAAAAUCUGGGCCAGGCAGGCAUCAAAAGAAAUAGUCUUGCGCUCAACCUGAAAGUCUGUAAUCAUUUUAAGGGUA [A23G A114U],0.07
14,GUUAACGGUCAUAGGCCAUGGAGACUAGGAGCACCAUUUCGCUGCCAAUGAAGAAAUGAACAAAGAAAAUCUGGGCCAGGCAGGCAUCAAAAGAAAUAGUCUUGCGCUCAACCAGAAAGUCUGUAAUCAUUUUAAGGGUA [A23G G48A],1.29
15,GUUAACGGUCAUAGGCCAUGGAGACUAGGAGCACCAUUUCGCUGCCAUUGAAGAAAUGAACAAAGAAAAUCUGGGCCAGGCAGGCAUCAAAAGAAAUAGUCUUGCGCUCAACCAGAAAGUCUGUAAUCAUUUUAAGGGUA [A23G G48U],0.73
16,GUUAACGGUCAUAGGCCAUGGAGACUAGGAGCACCAUUUCGCUGCCAGUGAAGAAAUGAACAAAGAAAAUCUGGACCAGGCAGGCAUCAAAAGAAAUAGUCUUGCGCUCAACCAGAAAGUCUGUAAUCAUUUUAAGGGUA [A23G G75A],0.19
17,GUUAACGGUCAUAGGCCAUGGAGACUAGGAGCACCAUUUCGCUGCCAGUGAAGAAAUGAACAAAGAAAAUCUGGGCCAGGCAGGCAUCAAAAGAAAUAGUCUUGCGCUCAACUAGAAAGUCUGUAAUCAUUUUAAGGGUA [A23G C113U],0.05
18,GUUAACGGUCAUAGGCCAUGGAGACUAGGAGCACCAUUUCGCUGCCAGUGAAGAAAUGAACAAAGAAAAUCUGGGCCAGGCAGGCAUCAAAAGAAAUAGUCUUGCGCUCAACCAGAGAGUCUGUAAUCAUUUUAAGGGUA [A23G A117G],1.2
19,GUUAACGGUCAUAGGCCAUGGAGACUAGGAGCACCAUUUCGCUGCCAGUGAAGAAAUGAACAAAGAAAAUCUGGGCCAGGCAGGCAUCAAAAGAAAUAGUCUUGCGCUCAACCAGGAAGUCUGUAAUCAUUUUAAGGGUA [A23G A116G],0.47
20,GUUAACGGUCAUAGGCCAUGGAGACUAGGAGCACCAUUUCGCUGCCAGUGAAGAAAUGAACAAAGAAAAUCUGGGCCAGGCAGGCAUCAAAAGAAAUAGUCUUGCGCUCAACCAGAAAAUCUGUAAUCAUUUUAAGGGUA [A23G G119A],1.38
